The text below walks through data of publication PMC11464722 (Nature Communications, 2024).

Test [1] has as its target SNAP-tagged murine µOR on HEK293 cells (murine, UniProt P42866 1-398). The test can be described thus: AlphaScreen or HTRF.
The target in test [2] is SNAP-tagged murine µOR on HEK293 cells (murine, UniProt P42866, SNAP-Lumi4-Tb (terbium cryptate) on the SNAP tag). The test can be described thus: AlphaScreen or HTRF.
Test [3] deals with human μ-opioid receptor, ssf-tagged, on HEK293 cells (Homo sapiens (Human)., UniProt P35372). The test can be described thus: immunostaining of cells or tissue.
The target in test [4] is murine κ-opioid receptor, ssf-tagged, on HEK293 cells (Mus musculus (Mouse)., UniProt P33534). The test can be described thus: flow cytometry on cells.
In test [5] the target is murine nociceptin opioid receptor, ssf-tagged, on HEK293 cells (Mus musculus (Mouse)., UniProt P35377). Nature of the test: flow cytometry on cells.
Chain of murine nociceptin opioid receptor, ssf-tagged, on HEK293 cells (P35377 whole entry): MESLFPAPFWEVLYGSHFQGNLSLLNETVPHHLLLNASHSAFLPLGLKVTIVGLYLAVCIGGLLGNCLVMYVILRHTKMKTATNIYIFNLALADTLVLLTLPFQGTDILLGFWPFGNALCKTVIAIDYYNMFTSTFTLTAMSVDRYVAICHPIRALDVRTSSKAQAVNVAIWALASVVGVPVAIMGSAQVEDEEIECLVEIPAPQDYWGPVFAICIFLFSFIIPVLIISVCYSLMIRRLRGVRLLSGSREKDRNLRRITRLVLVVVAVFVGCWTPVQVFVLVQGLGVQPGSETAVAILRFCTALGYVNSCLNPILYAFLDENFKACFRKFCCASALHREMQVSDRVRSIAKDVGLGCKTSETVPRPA

Chain of SNAP-tagged murine µOR on HEK293 cells (murine, UniProt P42866 1-398) (P42866 whole entry): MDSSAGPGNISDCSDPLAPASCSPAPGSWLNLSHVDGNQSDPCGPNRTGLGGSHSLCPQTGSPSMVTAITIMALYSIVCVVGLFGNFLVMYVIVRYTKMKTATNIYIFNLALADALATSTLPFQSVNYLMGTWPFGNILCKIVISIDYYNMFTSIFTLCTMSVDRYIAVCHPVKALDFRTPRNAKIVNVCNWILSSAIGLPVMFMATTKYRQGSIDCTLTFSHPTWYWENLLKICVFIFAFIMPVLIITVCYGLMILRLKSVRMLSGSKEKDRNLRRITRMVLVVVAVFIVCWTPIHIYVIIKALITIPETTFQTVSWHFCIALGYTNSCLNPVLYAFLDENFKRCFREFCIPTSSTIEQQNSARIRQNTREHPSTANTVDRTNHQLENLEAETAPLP
Chain of SNAP-tagged murine µOR on HEK293 cells (murine, UniProt P42866, SNAP-Lumi4-Tb (terbium cryptate) on the SNAP tag) (P42866 whole entry): as above
Chain of human μ-opioid receptor, ssf-tagged, on HEK293 cells (P35372 whole entry): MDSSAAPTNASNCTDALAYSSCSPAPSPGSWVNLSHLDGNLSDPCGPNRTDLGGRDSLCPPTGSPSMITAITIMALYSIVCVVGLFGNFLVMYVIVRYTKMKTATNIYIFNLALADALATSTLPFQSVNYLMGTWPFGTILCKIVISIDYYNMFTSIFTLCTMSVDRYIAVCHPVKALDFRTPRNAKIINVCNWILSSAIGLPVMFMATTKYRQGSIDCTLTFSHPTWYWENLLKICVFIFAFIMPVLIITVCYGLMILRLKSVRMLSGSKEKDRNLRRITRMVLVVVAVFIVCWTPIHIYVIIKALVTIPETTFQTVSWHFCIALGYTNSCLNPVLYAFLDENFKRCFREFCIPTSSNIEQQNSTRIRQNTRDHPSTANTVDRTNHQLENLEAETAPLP
Chain of murine κ-opioid receptor, ssf-tagged, on HEK293 cells (P33534 whole entry): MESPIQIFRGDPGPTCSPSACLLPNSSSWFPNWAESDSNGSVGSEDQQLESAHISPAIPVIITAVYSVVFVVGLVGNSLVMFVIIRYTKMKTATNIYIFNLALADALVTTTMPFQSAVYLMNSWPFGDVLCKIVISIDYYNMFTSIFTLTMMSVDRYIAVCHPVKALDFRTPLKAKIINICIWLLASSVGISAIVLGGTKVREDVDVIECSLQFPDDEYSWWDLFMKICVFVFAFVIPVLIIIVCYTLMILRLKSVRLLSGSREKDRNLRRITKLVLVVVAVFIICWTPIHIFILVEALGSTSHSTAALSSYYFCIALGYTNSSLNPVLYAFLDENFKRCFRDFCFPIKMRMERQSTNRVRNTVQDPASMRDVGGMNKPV

The molecule KYYSGSYFYKSEYD [linear peptide 6 (NbE CDR3 residues 100-113, 14 residues)] came in with a Ki in test [1] of 3100 nM.

B1: NbE (NbE-6xHis, unlabeled) (VHH)
VHH: QVQLVESGGGLVQAGGSLRLSCAASGSISSISTMGWYRQAPGNERELVAAITSGGSTNYADSVKGRFTISRDNAKNTVYLQMNSLKPEDTAVYYCNFKYYSGSYFYKSEYDYWGQGTQVTVSS
In turn, B1 showed a Ki in test [2] of 18 nM.

B2: HA-tagged NbE (VHH)
VHH: QVQLVESGGGLVQAGGSLRLSCAASGSISSISTMGWYRQAPGNERELVAAITSGGSTNYADSVKGRFTISRDNAKNTVYLQMNSLKPEDTAVYYCNFKYYSGSYFYKSEYDYWGQGTQVTVSS
In the case of B2, the binding result in test [3] was “binds”.

B3: NbE conjugated with Alexa Fluor 488 (VHH)
VHH: QVQLVESGGGLVQAGGSLRLSCAASGSISSISTMGWYRQAPGNERELVAAITSGGSTNYADSVKGRFTISRDNAKNTVYLQMNSLKPEDTAVYYCNFKYYSGSYFYKSEYDYWGQGTQVTVSS
Turning to B3, the binding result in test [4] and in test [5] was “no binding (tested: 10 μM)” in each case. As for Ac-YYSGSYFYKSEY-NH2 [linear peptide 5 (NbE CDR3, 12 residues)], in test [1], the affinity, expressed as Ki, was 1300 nM.
